Measured values as given in the PETadex activity labels (doi:10.1021/ma200949p).
Residue numbers refer to the chain shown, from its start.

B1: unnamed (protein)
chain: MANPYERGPNPTDALLEARSGPFSVSEENVSRLSASGFGGGTIYYPRENNTYGAVAISPGYTGTEASIAWLGERIASHGFVVITIDTITTLDQPDSRAEQLNAALNHMINRASSTVRSRIDSSRLAVMGHSMGGGGSLRLASQRPDLKAAIPLTPWHLNKNWSSVRVPTLIIGADLDTIAPVLTHARPFYNSLPTSISKAYLELDGATHFAPNIPNKIIGKYSVAWLKRFVDNDTRYTQFLCPGPRDGLFGEVEEYRSTCPF
B2: unnamed (protein)
chain: B1 chain with R19S, S137T, R166T, L183A, R187K, T195S
B3: unnamed (protein)
chain: MANPYERGPNPTDALLEARSGPFSVSEERASRFGADGFGGGTIYYPRENNTYGAVAISPGYTGTQASVAWLGERIASHGFVVITIDTNTTLDQPDSRARQLNAALDYMINDASSAVRSRIDSSRLAVMGHSMGGGGTLRLASQRPDLKAAIPLTPWHLNKNWSSVRVPTLIIGADLDTIAPVLTHARPFYNSLPTSISKAYLELDGATHFAPNIPNKIIGKYSVAWLKRFVDNDTRYTQFLCPGPRDGLFGEVEEYRSTCPF
B4: unnamed (protein)
chain: MAVMTPRRERSSLLSRALQVTAAAATALVTAVSLAAPAHAANPYERGPNPTDALLEASSGPFSVSEENVSRLSASGFGGGTIYYPRENNTYGAVAISPGYTGTEASIAWLGERIASHGFVVITIDTITTLDQPDSRAEQLNAALNHMINRASSTVRSRIDSSRLAVMGHSMGGGGTLRLASQRPDLKAAIPLTPWHLNKNWSSVTVPTLIIGADLDTIAPVATHAKPFYNSLPSSISKAYLELDGATHFAPNIPNKIIGKYSVAWLKRFVDNDTRYTQFLCPGPRDGLFGEVEEYRSTCPF

Assays:
[1] = substrate: p-NP-C2; conditions: pH 7, 25 °C
[2] = substrate: p-NP-C4; conditions: pH 7, 25 °C
[3] = substrate: pNP-C2; test: Proxy for plastic degradation [Km]; conditions: pH 7
[4] = substrate: pNPB; test: Proxy for plastic degradation [Km]; conditions: pH 7
[5] = substrate: pNP-C2; test: Proxy for plastic degradation [kcat] (s⁻¹); conditions: pH 7
[6] = substrate: pNPB; test: Proxy for plastic degradation [kcat] (s⁻¹); conditions: pH 7
[7] = substrate: PET; test: Proxy for plastic degradation [Water contact angle]; conditions: pH 7
[8] = substrate: PET; test: Proxy for plastic degradation [Released monomer concentration (HPLC/LC-MS) (TPA)] (mmol/mol enzyme); conditions: pH 7
[9] = substrate: PET; test: Proxy for plastic degradation [Released monomer concentration (HPLC/LC-MS) (TPA+MHET+BA+HEB)] (mmol/mol enzyme); conditions: pH 7
[10] = substrate: PET; test: Proxy for plastic degradation [Released monomer concentration (HPLC/LC-MS) (BA (benzoic acid))] (mmol/mol enzyme); conditions: pH 7
[11] = substrate: PET; test: Proxy for plastic degradation [Released monomer concentration (HPLC/LC-MS) (HEB (2-hydroxyethyl benzoate))] (mmol/mol enzyme); conditions: pH 7
[12] = substrate: PET; test: Proxy for plastic degradation [Surface fluorescence after BrNP labelling]; conditions: pH 7; part of the chain shown
[13] = substrate: PET; test: Proxy for plastic degradation [Released monomer concentration (HPLC/LC-MS) (BA)]; conditions: pH 7
[14] = substrate: PET; test: Proxy for plastic degradation [Released monomer concentration (HPLC/LC-MS) (HEB)]; conditions: pH 7
[15] = substrate: MHET; test: Proxy for plastic degradation [Released monomer concentration (HPLC/LC-MS) (MHET)]; conditions: pH 7
[16] = substrate: PET; test: Proxy for plastic degradation [Released monomer concentration (HPLC/LC-MS) (MHET+BA, TA, HEB)]; conditions: pH 7

| Protein | Proxy for plastic degradation [4] | Proxy for plastic degradation [6] | Km ([1]; part of the chain shown) | kcat ([1]; part of the chain shown) | kcat/Km ([1]; part of the chain shown) | Km ([2]; part of the chain shown) | kcat ([2]; part of the chain shown) | kcat/Km ([2]; part of the chain shown) | Proxy for plastic degradation ([3]; part of the chain shown) | Proxy for plastic degradation ([4]; part of the chain shown) | Proxy for plastic degradation ([5]; part of the chain shown) | Proxy for plastic degradation ([6]; part of the chain shown) | Proxy for plastic degradation ([13]; part of the chain shown) | Proxy for plastic degradation ([14]; part of the chain shown) | Proxy for plastic degradation ([15]; 50 °C, part of the chain shown) | Proxy for plastic degradation ([15]; part of the chain shown) | Proxy for plastic degradation ([16]; part of the chain shown) | Proxy for plastic degradation ([8]; part of the chain shown) | Proxy for plastic degradation ([9]; 2 h, part of the chain shown) | Proxy for plastic degradation ([10]; part of the chain shown) | further results |
| --- | --- | --- | --- | --- | --- | --- | --- | --- | --- | --- | --- | --- | --- | --- | --- | --- | --- | --- | --- | --- | --- |
| B1 | 2100 µM | 30.9 |  |  |  |  |  |  |  |  |  |  |  |  |  |  |  |  |  |  | Km [1]: 167 µM; kcat [1]: 39.5 s⁻¹; kcat/Km [1]: 237000 s⁻¹ M⁻¹; Km [2]: 2.1 mM; kcat [2]: 30.9 s⁻¹; kcat/Km [2]: 14700 s⁻¹ M⁻¹; Proxy for plastic degradation [3]: 167 µM; Proxy for plastic degradation [5]: 39.5; Proxy for plastic degradation [7]: 71.2 °; Proxy for plastic degradation [8]: 42; Proxy for plastic degradation ([9]; 2 h): 64; Proxy for plastic degradation ([9]; 24 h): 830; Proxy for plastic degradation ([9]; 72 h): 1820; Proxy for plastic degradation [10]: 22.7; Proxy for plastic degradation [11]: 23.4 |
| B2 |  |  | 127 µM | 212 s⁻¹ | 1.67e+06 s⁻¹ M⁻¹ | 1.48 mM | 195 s⁻¹ | 132000 s⁻¹ M⁻¹ | 127 µM | 1480 µM | 212 | 195 | 48 mmol/mol | 32 mmol/mol | 5 mmol/mol | 25 mmol/mol | 63 mmol/mol | 56 | 119 | 48.9 | Proxy for plastic degradation ([7]; part of the chain shown): 66.3 °; Proxy for plastic degradation [12]: 1540 AU; Proxy for plastic degradation ([11]; part of the chain shown): 32 |
| B3 |  |  | 200 µM | 2.4 s⁻¹ | 12000 s⁻¹ M⁻¹ | 2.13 mM | 5.3 s⁻¹ | 2480 s⁻¹ M⁻¹ | 200 µM | 2130 µM | 2.4 | 5.3 | 28 mmol/mol | 29 mmol/mol | 13 mmol/mol | 18 mmol/mol | 76 mmol/mol | 5 | 90 | 27.9 | Proxy for plastic degradation ([11]; part of the chain shown): 28.6 |
| B4 | 2100 µM | 30.9 |  |  |  |  |  |  |  |  |  |  |  |  |  |  |  |  |  |  | Proxy for plastic degradation [13]: 23 mmol/mol; Proxy for plastic degradation [14]: 22 mmol/mol; Proxy for plastic degradation [15]: 15 mmol/mol; Proxy for plastic degradation ([15]; 50 °C): 7 mmol/mol; Proxy for plastic degradation [16]: 49 mmol/mol |
